B1: murine 11B6 antibody (m11B6), parent murine anti-hK2 monoclonal antibody (antibody, mouse IgG1, kappa, V domains shown)
VH: DVQLQESGPGLVKPSQSLSLTCTVTGNSITSDYAWNWIRQFPGNRLEWMGYISYSGSTTYSPSLKSRFSITRDTSKNQFFLQLNSVTPEDTATYFCATGYYYGSGFWGQGTLVTVSS
VL: DIVLTQSPASLAVSLGQRATISCRASESVEYFGTSLMHWYRQKPGQPPKLLIYAASNVESGVPARFSGSGSGTDFSLNIQPVEEDDFSMYFCQQTRKVPYTFGGGTKLEIKR
notes: Whole murine IgG obtained from the University of Turku; also called mAb 11B6; ml 1B6
B2: h11B6-DFO (humanised 11B6 conjugated with deferoxamine) (antibody, human IgG1, kappa, V domains shown)
VH: QVQLQESGPGLVKPSDTLSLTCAVSGNSITSDYAWNWIRQPPGKGLEWIGYISYSGSTTYNPSLKSRVTMSRDTSKNQFSLKLSSVTAVDTAVYYCATGYYYGSGFWGQGTLVTVSS
VL: DIVLTQSPDSLAVSLGERATINCKASESVEYFGTSLMHWYQQKPGQPPKLLIYAASNRESGVPDRFSGSGSGTDFTLTISSLQAEDVAVYYCQQTRKVPYTFGQGTKLEIKR
modifications: DFO (deferoxamine) chelator coupled; residues and chain not stated
notes: This is the h11B6 IgG1/kappa carrying DFO; also called h1166-DFO; DFO-h11B6
B3: h11B6-DTPA (humanised 11B6 conjugated with DTPA chelator) (antibody, V domains shown)
VH: B2 VH
VL: B2 VL
modifications: DTPA chelator coupled; residues and chain not stated
notes: This is the h11B6 IgG1/kappa carrying a chelator; also called h1166-DTPA; H1166-DTPA
B4: humanised 11B6 antibody (h11B6), IgG1/kappa (antibody, V domains shown)
VH: B2 VH
VL: B2 VL
notes: Expressed transiently in HEK293 cells; also called h1186

Columns and labels:
human kallikrein-2 (hK2) [1] = target: T1, human kallikrein-2 (hK2) (human, UniProt P20151 25-261); assay: SPR, Biacore 3000, hK2 on CM4 chip, mean KD from kon and koff
T1 construct: The mature protein is said to be underlined, but the underlining is not recoverable from the text; In the assay hK2 was amine-coupled to a CM4 chip; also called human glandular kallikrein 2; antigen hK2
T1 sequence (P20151 25-261 limits assumed): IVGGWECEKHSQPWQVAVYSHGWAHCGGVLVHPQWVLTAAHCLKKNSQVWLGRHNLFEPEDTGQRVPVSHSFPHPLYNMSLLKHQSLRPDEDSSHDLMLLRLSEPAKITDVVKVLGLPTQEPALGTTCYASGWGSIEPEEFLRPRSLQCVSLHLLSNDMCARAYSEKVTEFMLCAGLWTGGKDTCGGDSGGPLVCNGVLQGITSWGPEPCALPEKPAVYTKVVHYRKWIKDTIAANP
Experimental: (§1) All binding experiments were performed on CM4 chip on a Biacore 3000 instrument. The chip and all the reagents needed for activation, immobilization, deactivation, binding and regeneration were purchased from GE Healthcare and used according to the guidelines from the manufacturer.

human kallikrein-2 (hK2) [2] = target: T1, human kallikrein-2 (hK2); assay: SPR, Biacore 3000, hK2 on CM4 chip, mean of channels fc2 and fc3
Experimental: as §1
(§2) The dissociation phase data was fitted and the dissociation rate constants (koff) were estimated (see Table 2).

human kallikrein-2 (hK2) [3] = target: T1, human kallikrein-2 (hK2); assay: SPR, Biacore 3000, hK2 on CM4 chip, antibody 6.25-100 nM, mean of 18/18 fitted experiments
Experimental: as §1
(§3) In order to estimate the association rate constants, the dissociation rate constants (Table 2) were used in the fitted equations.
(§4) All fitted data was used in order to calculate an average value of the association rate constant and the standard deviation for each antibody (see Table 3).

human kallikrein-2 (hK2) [4] = target: T1, human kallikrein-2 (hK2); assay: SPR, Biacore 3000, hK2 amine-coupled on CM4 chip, channel fc2, 50 nM antibody, 480 min dissociation
Experimental: as §1, §2

human kallikrein-2 (hK2) [5] = target: T1, human kallikrein-2 (hK2); assay: SPR, Biacore 3000, hK2 amine-coupled on CM4 chip, channel fc3, 50 nM antibody, 480 min dissociation
Experimental: as §1, §2

human kallikrein-2 (hK2) [6] = target: T1, human kallikrein-2 (hK2); assay: SPR, Biacore 3000, hK2 on CM4 chip, antibody 6.25-100 nM, mean of 17/18 fitted experiments
Experimental: as §1, §3, §4

human kallikrein-2 (hK2) [7] = target: T1, human kallikrein-2 (hK2); assay: SPR, Biacore 3000, hK2 on CM4 chip, antibody 6.25-100 nM, mean of 15/18 fitted experiments
Experimental: as §1, §3, §4

| Binder | Kd (human kallikrein-2 (hK2) [1]) | koff (human kallikrein-2 (hK2) [2]) | kon (human kallikrein-2 (hK2) [3]) | koff (human kallikrein-2 (hK2) [4]) | koff (human kallikrein-2 (hK2) [5]) | kon (human kallikrein-2 (hK2) [6]) | kon (human kallikrein-2 (hK2) [7]) |
| --- | --- | --- | --- | --- | --- | --- | --- |
| B1 | 0.19 nM | 3.4e-05 s⁻¹ | 248000 M⁻¹ s⁻¹ | 1.9e-05 s⁻¹ | 4.9e-05 s⁻¹ |  |  |
| B2 | 0.54 nM | 5.7e-05 s⁻¹ | 111000 M⁻¹ s⁻¹ | 5.8e-05 s⁻¹ | 5.5e-05 s⁻¹ |  |  |
| B3 | 0.93 nM | 0.000127 s⁻¹ |  | 6.3e-05 s⁻¹ | 0.000191 s⁻¹ | 182000 M⁻¹ s⁻¹ |  |
| B4 | 0.65 nM | 6.7e-05 s⁻¹ |  | 6.4e-05 s⁻¹ | 6.9e-05 s⁻¹ |  | 117000 M⁻¹ s⁻¹ |
